Data reported in paper PMC10195879.
Read-outs that look alike come from different tables or passages of the source.

Key:
[1] = molecular target: GMPCPP-stabilized microtubules (bovine brain tubulin, TAMRA-labeled) (bovine) (UniProt Q6B856); assay: single-molecule TIRF microscopy
[2] = molecular target: GMPCPP-stabilized microtubules (bovine brain tubulin, TAMRA-labeled) (bovine) (UniProt Q6B856); assay: single-molecule TIRF microscopy; remark: listed apart in the source

His-EGFP-L-TOG2-S (minimal construct of CLASP2α: short linker region, TOG2 domain and serine-arginine-rich region) (domain or fragment), sequence (O75122 whole entry, the tested form may be a part): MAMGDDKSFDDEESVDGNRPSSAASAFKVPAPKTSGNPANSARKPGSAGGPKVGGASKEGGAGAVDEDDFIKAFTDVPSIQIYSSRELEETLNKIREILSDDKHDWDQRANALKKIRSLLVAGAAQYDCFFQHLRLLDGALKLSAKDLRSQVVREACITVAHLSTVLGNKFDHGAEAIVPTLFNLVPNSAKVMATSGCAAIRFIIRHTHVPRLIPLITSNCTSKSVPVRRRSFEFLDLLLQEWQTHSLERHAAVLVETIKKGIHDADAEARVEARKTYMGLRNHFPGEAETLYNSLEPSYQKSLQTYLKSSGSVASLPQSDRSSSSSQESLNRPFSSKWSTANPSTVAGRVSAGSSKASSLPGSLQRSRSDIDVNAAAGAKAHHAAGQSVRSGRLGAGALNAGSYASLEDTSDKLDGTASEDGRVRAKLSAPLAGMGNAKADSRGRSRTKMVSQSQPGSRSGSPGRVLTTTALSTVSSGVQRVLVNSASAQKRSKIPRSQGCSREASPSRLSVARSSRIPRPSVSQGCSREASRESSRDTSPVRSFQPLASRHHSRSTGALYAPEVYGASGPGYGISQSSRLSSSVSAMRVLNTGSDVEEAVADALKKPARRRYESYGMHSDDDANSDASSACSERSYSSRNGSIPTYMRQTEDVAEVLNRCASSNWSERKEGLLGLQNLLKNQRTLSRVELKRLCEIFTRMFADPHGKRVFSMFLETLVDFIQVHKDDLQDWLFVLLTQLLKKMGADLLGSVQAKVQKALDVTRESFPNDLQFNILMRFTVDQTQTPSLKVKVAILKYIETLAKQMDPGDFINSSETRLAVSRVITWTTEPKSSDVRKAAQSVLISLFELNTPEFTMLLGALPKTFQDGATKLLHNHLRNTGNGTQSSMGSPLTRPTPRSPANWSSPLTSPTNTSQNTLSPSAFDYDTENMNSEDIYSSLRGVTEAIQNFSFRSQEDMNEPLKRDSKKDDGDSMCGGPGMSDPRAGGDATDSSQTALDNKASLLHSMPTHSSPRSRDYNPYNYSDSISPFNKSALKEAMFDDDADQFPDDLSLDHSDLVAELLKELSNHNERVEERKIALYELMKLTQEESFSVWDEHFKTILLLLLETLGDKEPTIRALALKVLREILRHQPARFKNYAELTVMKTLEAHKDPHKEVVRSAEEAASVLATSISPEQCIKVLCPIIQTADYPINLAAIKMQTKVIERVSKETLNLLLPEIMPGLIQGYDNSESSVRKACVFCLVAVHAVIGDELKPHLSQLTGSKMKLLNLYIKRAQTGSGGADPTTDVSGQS

mean dwell time on microtubule ends [1]: 3.8 s | mean dwell time on microtubule ends [2]: 0.53 s
Substance: His-EGFP-L-TOG2-S (minimal construct of CLASP2α: short linker region, TOG2 domain and serine-arginine-rich region) (domain or fragment)
